Article PMC7859239

Legend:
[1] = molecular target: Schizosaccharomyces pombe RNA polymerase I (Schizosaccharomyces pombe (endogenous in S. pombe)) (UniProt P15398); assay: cryo-EM structure; dimer particles in the 'monomer' dataset of BS3-crosslinked Sp Pol I after SEC (5 mM HEPES pH 7.8, 1 mM MgCl2, 10 µM ZnCl2, 150 mM KCl, 5 mM DTT); C2 symmetry imposed; 4.5 Å; model by placing two monomers and rigid body fitting of subdomains
[2] = molecular target: Schizosaccharomyces pombe RNA polymerase I (Schizosaccharomyces pombe (endogenous in S. pombe)) (UniProt P15398); assay: negative-stain EM with 2D classification; peak fraction of the analytical SEC in high-salt buffer S1500 (1.5 M KAc); uranyl formate; 20,054 particles classified into 16 classes
[3] = molecular target: Schizosaccharomyces pombe RNA polymerase I (Schizosaccharomyces pombe (endogenous in S. pombe)) (UniProt P15398); assay: negative-stain EM with 2D classification; peak fraction of the analytical SEC in low-salt buffer S300 (300 mM KAc); uranyl formate; 24,462 particles classified into 16 classes

Substance: Schizosaccharomyces pombe RNA polymerase I, P15398 1-1689; Q9P7X8 1-1174; O94616 1-348; Q09177 1-125; O43036 1-173; Q9P7P1 1-147; O94703 1-119; Q09191 1-210; P36595 1-142; Q92399 1-125; O13877 1-71; P48011 1-63; O14086 1-425; Q9USZ4 1-251
- stoichiometry N [1]: 2
- percent of Pol I molecules in a dimeric state [2]: 49%
- percent of identified particles in a dimeric state [2]: 32%
- percent of particles in a dimeric state [3]: < 2%
